Test results from article PMC4560160.

Tests used:
[1] = biological target: CCR5 endogenously expressed on human blood-derived monocytes, monocyte-derived macrophages (MDMs) and T cell blasts (human (endogenous in blood monocytes, MDMs and T cell blasts)) (UniProt P51681)
[2] = biological target: CCR5 endogenously expressed on human blood-derived monocytes, monocyte-derived macrophages (MDMs) and T cell blasts (human (endogenous in blood monocytes, MDMs and T cell blasts)) (UniProt P51681); remark: listed apart in the source
[3] = biological target: human CCR5 expressed on DHFR-deficient CHO cells (CHO-CCR5) (human) (UniProt P51681)

Chain of CCL5 (P13501 24-91): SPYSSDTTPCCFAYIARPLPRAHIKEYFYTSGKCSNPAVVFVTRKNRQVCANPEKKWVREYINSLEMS

| Substance | CCR5 down-modulation on monocytes after overnight culture with 100 nM analog: reduction of the surface binding signal of MC5, 2D7 and CTC5, flow cytometry [1] | CCR5 down-modulation on MDMs after overnight exposure to 100 nM ligand, detected with CTC5, flow cytometry [2] | CCR5 down-modulation: reduction of the specific binding of each anti-CCR5 mAb to the surface of CHO-CCR5 cells after 1 h at 37°C with 100 nM CCL5, flow cytometry [3] |
| --- | --- | --- | --- |
| PSC-RANTES: Nα(n-nonanoyl)-des-Ser(1)-[L-thioprolyl(2), L-cyclohexylglycyl(3)]-RANTES(4-68) (from UniProt P13501 27-91) (ligand) | 50% | > 50% | – |
| CCL5 (from UniProt P13501 24-91) (ligand) | – | – | 50% |
| amino-oxypentane (AOP)-RANTES (from UniProt P13501 24-91) (ligand) | 50% | > 50% | – |
